Source: patent US20220120736A1, “METHODS AND ASSAYS FOR MODULATING GENE TRANSCRIPTION BY MODULATING CONDENSATES” (Whitehead Institute for Biomedical Research, priority 2018, published 2022)
Where no end group is shown, it is not given here.

Columns and labels:
[1] = In vitro homotypic droplet formation assay; type: physicochemical
Procedure: Slides were then imaged on the Andor Revolution Spinning Disk Confocal using a 100× objective.
The CDK8-Mediator samples were purified as described (Meyer et al., 2008) with modifications. Prior to affinity purification, the P0.5M/QFT fraction was concentrated, to 12 mg/mL, by ammonium sulfate precipitation (35%). […] Affinity purification was carried out as described (Meyer et al., 2008), eluted material was loaded onto a 2.2 mL centrifuge tube containing 2 mL 0.15M KCl HEMG (20 mM HEPES, 0.1 mM EDTA, 2 mM MgCl2, 10% glycerol) and centrifuged at 50K RPM for 4 h at 4° C. This served to remove excess free GST-SREBP and to concentrate the CDK8-Mediator in the final fraction. Prior to droplet assays, purified CDK8-Mediator was concentrated using Microcon-30 kDa Centrifugal Filter Unit with Ultracel-30 membrane (Millipore MRCFOR030) to reach ˜300 nM of Mediator complex. Concentrated CDK8-Mediator was added to the droplet assay to a final concentration of ˜200 nM with or without 10 μM indicated GFP-tagged protein. Droplet reactions contained 10% PEG-8000 and 140 mM salt.
Proteins were stored in 10% glycerol, 50 mM Tris-HCl pH 7.5, 500 mM NaCl, 1 mM DTT. Amicon Ultra Centrifugal filters (30K or 50K MWCO, Millipore) were used to concentrate proteins to desired concentrations. […] Droplet assays were performed in 8-tube PCR strip. […]

MED1-GFP condensates = test: FRAP of MED1-GFP condensates in mESCs; type: cell-based, mouse; details: ectopic expression in mESCs, untreated
Procedure: ATP depletion: Cells were cultured for 2 hours in glucose-free DMEM (Gibco, 11966025) supplemented with 0.5× B27 supplement and 0.5× N2 supplement followed by incubation with 5 mM 2-deoxy-glucose (Sigma, D6134) and 126 nM Oligomycin (Sigma, 75351) for 2 hours. Cellular ATP levels were measured using a bioluminescence assay (Invitrogen, A22066) following manufacturer's instructions. Cells expressing fluorescently tagged proteins were imaged ever 1 s for 20 s at a 100× objective on the Andor Revolution Spinning Disk Confocal, […] system and Metamorph acquisition software (W.M. Keck Microscopy Facility, MIT). One or two images were pre-bleach and on then approximately 0.5 μm^2 was bleached with the 488 nm laser of the quantifiable laser module (QLM). FRAP was performed on selecting region of interest with 5 pulses of 20 μs each. For FRAP analysis, florescence recovery was measured as fluorescence intensity of photobleached area normalized to the intensity of the unbleached area or the entire nucleus. Fluorescence intensity was measured with FIJI FRAP profiler plugin (code written by Jeff […], adapted from Tony Collins' Macbiophotonics plugins, available here: //worms.zoology.wisc.edu/research/4d/4d.html

MED1-IDR droplets = molecular target: T1, MED1-IDR droplets (Homo sapiens, UniProt Q15648); test: In vitro droplet assay, TMR-labeled decapeptides with MED1-IDR-GFP; type: biochemical; details: 10 uM each, 125 mM NaCl, 10% PEG-8000
T1 construct: pETEC-MED1-IDR-GFP; Sabari et al., 2018; 948-1574; 6xHis (N); made in house; host or cells: E. coli LOBSTR
Procedure: Recombinant GFP or mCherry fusion proteins were concentrated and desalted to an appropriate protein concentration and 125 mM NaCl using Amicon Ultra centrifugal filters (30K MWCO, Millipore). Recombinant proteins were added to solutions at varying concentrations with indicated final salt and 10% PEG-8000 as crowding agent in Droplet Formation Buffer (50 mM Tris-HCl pH 7.5, 10% glycerol, 1 mM DTT). The protein solution was immediately loaded onto a homemade chamber comprising a glass slide with a coverslip attached by two parallel strips of double-sided tape. Slides were then imaged with an Andor confocal microscope with a 150× objective. Unless indicated, images presented are of droplets settled on the glass coverslip. For experiments with fluorescently labeled polypeptides, the indicated decapeptides were synthesized by the Koch Institute/MIT Biopolymers & Proteomics Core Facility with a TMR fluorescent tag. The protein of interest was added Buffer D with 125 mM NaCl and 10% Peg-8000 with the indicated polypeptide and imaged as described above. For FRAP of in vitro droplets 5 pulses of laser at a 50 us dwell time was applied to the droplet, and recovery was imaged on an Andor microscope every is for the indicated time periods. […] One microliter of this concentrated stock was used in a 10 uL droplet formation reaction to achieve a final concentration of 10 uM.

MED1-IDR-mCherry = molecular target: T2, MED1-IDR-mCherry (human, UniProt Q15648 948-1574); test: in vitro droplet assay, 10 uM each, 125 mM NaCl, 10% PEG-8000
T2 construct: Recombinant from E. coli; Lacks the LXXLL motifs; also called mCherry-MED1-IDR

MED1-IDR-GFP = molecular target: T3, MED1-IDR-GFP (human, UniProt Q15648 948-1574); test: in vitro droplet assay with TMR-labeled decapeptide, 125 mM NaCl, 10% PEG-8000
T3 construct: Recombinant from E. coli
Text: All 17 acidic residues in the N-AD and 6 acidic residues in the C-AD were mutated to alanine to generate an OCT4-acidic mutant.

HCT116 cells = test: FRAP of endogenously tagged mEGFP-β-catenin in HCT116 cells; type: cell-based; details: nuclear puncta, constitutive WNT-activated HCT116 cells
Procedure: FRAP was performed on LSM880 Airyscan microscope with 488 nm laser. Bleaching was performed over a rbleach≈1 um using 100% laser power and images were collected every two seconds. Fluorescence intensity was measured using FIJI. Background intensity was subtracted and values are reported relative to pre-bleaching time points.
Custom MATLAB™ scripts were written to process the intensity data, accounting for background photobleaching and normalization to pre-bleach intensity. Post bleach FRAP recovery data was averaged over 9 replicates for each cell-line and condition.

GCN4: purified recombinant yeast GCN4-GFP
concentration at which micron-sized droplets form alone ([1]; 125 mM NaCl, 10% PEG-8000): 40 µM

MED1-GFP: full-length human MED1 fused to mEGFP, ectopically expressed in mESCs
apparent diffusion coefficient (MED1-GFP condensates): 0.36±0.13 μm2/s

Poly-E: TMR labeled glutamic acid decapeptide
incorporation of TMR labeled decapeptide into MED1-IDR droplets (MED1-IDR droplets): incorporated into MED1-IDR droplets | incorporation of TMR labeled decapeptide into MED1-IDR droplets (MED1-IDR droplets; listed as glutamic acid peptides): concentrated within

Poly-P: TMR labeled proline decapeptide (PPPPPPPPPP; also: TMR labeled, site not given here)
incorporation of TMR labeled decapeptide into MED1-IDR droplets (MED1-IDR droplets): not incorporated into MED1-IDR droplets

B1: ER-GFP (receptor, not shown: large carriers; small tags and cut ends)
chain: MTMTLHTKASGMALLHQIQGNELEPLNRPQLKIPLERPLGEVYLDSSKPAVYNYPEGAAYEFNAAAAANAQVYGQTGLPYGPGSEAAAFGSNGLGGFPPLNSVSPSPLMLLHPPPQLSPFLQPHGQQVPYYLENEPSGYTVREAGPPAFYRPNSDNRRQGGRERLASTNDKGSMAMESAKETRYCAVCNDYASGYHYGVWSCEGCKAFFKRSIQGHNDYMCPATNQCTIDKNRRKSCQACRLRKCYEVGMMKGGIRKDRRGGRMLKHKRQRDDGEGRGEVGSAGDMRAANLWPSPLMIKRSKKNSLALSLTADQMVSALLDAEPPILYSEYDPTRPFSEASMMGLLTNLADRELVHMINWAKRVPGFVDLTLHDQVHLLECAWLEILMIGLVWRSMEHPGKLLFAPNLLLDRNQGKCVEGMVEIFDMLLATSSRFRMMNLQGEEFVCLKSIILLNSGVYTFLSSTLKSLEEKDHIHRVLDKITDTLIHLMAKAGLTLQQQHQRLAQLLLILSHIRHMSNKGMEHLYSMKCKNVVPLYDLLLEMLDAHRLHAPTSRGGASVEETDQSHLATAGSTSSHSLQKYYITGEAEGFPATV
notes: Tested without ligand, with estrogen (beta-estradiol) and with tamoxifen (4-hydroxytamoxifen); also called estrogen receptor; GFP labeled ER
binding result (MED1-IDR-mCherry): binds

PPPPPPPPPP (also: TMR fluorescent tag, site not given here, also called proline decapeptide) [TMR-Poly-P Peptide]
binding result (MED1-IDR-GFP): no binding (tested: 10 uM)

B2: β-catenin: mEGFP-tagged β-catenin at the endogenous locus in HCT116 cells (protein)
chain: ATQADLMELDMAMEPDRKAAVSHWQQQSYLDSGIHSGATTTAPSLSGKGNPEEEDVDTSQVLYEWEQGFSQSFTQEQVADIDGQYAMTRAQRVRAAMFPETLDEGMQIPSTQFDAAHPTNVQRLAEPSQMLKHAVVNLINYQDDAELATRAIPELTKLLNDEDQVVVNKAAVMVHQLSKKEASRHAIMRSPQMVSAIVRTMQNTNDVETARCTAGTLHNLSHHREGLLAIFKSGGIPALVKMLGSPVDSVLFYAITTLHNLLLHQEGAKMAVRLAGGLQKMVALLNKTNVKFLAITTDCLQILAYGNQESKLIILASGGPQALVNIMRTYTYEKLLWTTSRVLKVLSVCSSNKPAIVEAGGMQALGLHLTDPSQRLVQNCLWTLRNLSDAATKQEGMEGLLGTLVQLLGSDDINVVTCAAGILSNLTCNNYKNKMMVCQVGGIEALVRTVLRAGDREDITEPAICALRHLTSRHQEAEMAQNAVRLHYGLPVVVKLLHPPSHWPLIKATVGLIRNLALCPANHAPLREQGAIPRLVQLLVRAHQDTQRRTSMGGTQQQFVEGVRMEEIVEGCTGALHILARDVHNRIVIRGLNTIPLFVQLLYSPIENIQRVAAGVLCELAQDKEAAEAIEAEGATAPLTELLHSRNEGVATYAAAVLFRMSEDKPQDYKKRLSVELTSSLFRTEPMAWNETADLGLDIGAQGEPLGYRQDDPSYRSFHSGGYGQDALGMDPMMEHEMGGHHPGADYPVDGLPDLGHAQDLMDGLPPGDSNQLAWFDTDL
modifications: left off: large carriers; small tags and cut ends
notes: mEGFP-tagged β-catenin at the endogenous locus in HCT116 cells
approximate apparent diffusion coefficient (HCT116 cells): ~0.004±0.003 μm^2/s

B3: MED1-IDR: recombinant GFP fusion of the MED1 intrinsically disordered region (948-1574) (protein)
chain: EHHSGSQGPLLTTGDLGKEKTQKRVKEGNGTSNSTLSGPGLDSKPGKRSRTPSNDGKSKDKPPKRKKADTEGKSPSHSSSNRPFTPPTSTGGSKSPGSAGRSQTPPGVATPPIPKITIQIPKGTVMVGKPSSHSQYTSSGSVSSSGSKSHHSHSSSSSSSASTSGKMKSSKSEGSSSSKLSSSMYSSQGSSGSSQSKNSSQSGGKPGSSPITKHGLSSGSSSTKMKPQGKPSSLMNPSLSKPNISPSHSRPPGGSDKLASPMKPVPGTPPSSKAKSPISSGSGGSHMSGTSSSSGMKSSSGLGSSGSLSQKTPPSSNSCTASSSSFSSSGSSMSSSQNQHGSSKGKSPSRNKKPSLTAVIDKLKHGVVTSGPGGEDPLDGQMGVSTNSSSHPMSSKHNMSGGEFQGKREKSDKDKSKVSTSGSSVDSSKKTSESKNVGSTGVAKIIISKHDGGSPSIKAKVTLQKPGESSGEGLRPQMASSKNYGSPLISGSTPKHERGSPSHSKSPAYTPQNLDSESESGSSIAEKSYQNSPSSDDGIRPLPEYSTEKHKKHKKEKKKVKDKDRDRDRDKDRDKKKSHSIKPESWSKSPISSDQSLSMTSNTILSADRPSRLSPDFMIGEEDDDLM
modifications: left off: large carriers; small tags and cut ends
lowest concentration tested, at which droplets were observed ([1]; droplet formation buffer with 10% PEG-8000, range tested 0.6 to 20 μM): 0.6 µM
